Data reported in patent US9610323B2, “Model systems and treatment regimes for treatment of neurological disease” (NoNO Inc., priority 2009, dated 2017).
Like-named read-outs stand apart in the source and are kept apart here. Square brackets hold non-standard residues; d marks the D form. Ends that are not written are not given here.

Experiments:
embolic stroke = assay: Primate model of ischemic stroke (twenty 100-micron polystyrene spheres into an intracerebral vessel; MRI brain analysis); type: in vivo, macaques; details: 2.6 mg/kg one hour after spheres
Method: The following example was performed on ten macaques divided into five test subjects and five controls. Each animal was put through the protocol twice with test animals in the first round serving as controls in the second round and vice versa.
Twenty 100-micron polystyrene spheres were delivered into an intracerebral vessel of each animal to induce embolic stroke. One hour after introducing the sphere, the animals were treated with Tat-NR2B9c (2.6 mg/kg) or vehicle control. The animals were then subject to MRI brain analysis and neurological examination at 4 hr, 24 hr and 14 days after introduction of the spheres.
After 14-28 days, the procedure was repeated with test animals serving as controls and vice versa.

[1] = system: permanent pial vessel occlusion (P3VO) stroke; assay: Rat model of stroke, permanent pial vessel occlusion of 3 terminal branches of the Middle Cerebral Artery (P3VO); type: in vivo, Sprague Dawley rats; details: 7.6 mg/kg i.v. after vessel occlusion, 5 min infusion
Method: Different infusion times were also compared for efficacy in a rat model of stroke in which adult Sprague Dawley rats (10-12 weeks old) (males˜300 g, females˜250 g) were fasted for 12-18 hours before being subjected to permanent pial vessel occlusion of 3 terminal branches of the Middle Cerebral Artery over the Whisker Barrel Cortex (P3VO). The protocol for analysis of this rat model has been described in WO/2008/008348. Tat-NR2B9c was administered at 7.6 mg/kg i.v. after vessel occlusion in comparison with vehicle. Two periods of infusion were compared, 5 min and 1 hour.

[2] = Method: For use such a composition is thawed and diluted into a larger volume of normal saline for infusion into a blood vessel. Another composition can be made by lyophilizing the chimeric agent Tat-NR2B9c at a concentration of 1-50 mg/ml in normal saline in the presence or absence of excipients. Such excipients can include those to increase stability or inhibit bacterial, viral or other pathogen growth that could degrade the drug. […] The lyophilized composition can be reconstituted in normal saline.
[3] = 50 mg/kg
Method: Tat-NR2B9c was administered to rats at 50 mg/kg and infusion times of 3 min or 60 min.

[4] = for subjects with histamine levels greater than 10 nmol/L: 3.75 mg/kg dose group; for maximum histamine level / average histamine level: 3.75 mg/kg; for average histamine level: subjects with levels greater than 10 nmol/L
Method: We carried out a Safety, Tolerability and Pharmacokinetic Study of Tat-NR2B9c in humans. Subjects were either normal, healthy, non-smoking males or post-menopausal or surgically sterile female subjects with a minimum age of 18 years. The subjects were either administered Tat-NR2B9c, Lot #: 124-134-001B, or were given placebo (Phosphate Buffered Saline), Lot #: 124-134-001A, administered as an intravenous infusion (10±1 minutes). Four subjects were dosed in each of Cohorts 1 to 3, and 10 subjects were dosed in each of Cohorts 4 to 8.
During the study period, 11 blood samples were collected for pharmacokinetic analysis from each subject at the following timepoints: 0.00 (pre-dose), 0.08 (5 minutes), 0.17 to 0.25 (10 to 15 minutes, precisely at the end of each individual drug infusion), 0.33 (20 minutes), 0.50, 0.75, 1.00, 2.00, 6.00, 12.00, and 24.00 hours post-dose. In addition, 8 blood samples were collected for histamine analysis from each subject at the following timepoints: 0.00 (pre-dose), and at 0.08 (5 minutes), 0.17 (10 minutes), 0.25, 0.50, 1.00, 2.00, and 24.00 hours post-dose.
The safety assessment was performed on all subjects who received at least 1 dose during the course of the study. The incidents of all adverse events (AEs) were tabulated by treatment and subject number. Absolute values for vital signs, electrocardiogram (ECG) parameters, laboratory parameters and physical examinations were also documented and values outside the normal range were flagged. Shifts from baseline values were tabulated. AEs were documented using investigator and Medical Dictionary for Regulatory Activities (MedDRA) terms.

[5] = high dose groups, rats
[6] = high dose groups, dogs
[7] = high dose groups, primates
[8] = biological target: binding of NMDAR 2B to PSD95 (Homo sapiens, UniProt P78352); details: reported by Bach; cited from earlier work
cerebral ischemia = details: reported in WO 2008/014917; cited from earlier work
[9] = cortex compared with whole brain

Sequence of binding of NMDAR 2B to PSD95 (P78352 61-249 limits assumed): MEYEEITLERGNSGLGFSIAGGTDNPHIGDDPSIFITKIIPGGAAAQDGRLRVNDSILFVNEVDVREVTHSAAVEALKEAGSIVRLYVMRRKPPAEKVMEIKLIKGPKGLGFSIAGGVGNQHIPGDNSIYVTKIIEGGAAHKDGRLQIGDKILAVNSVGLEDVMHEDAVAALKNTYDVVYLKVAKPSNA

Substance: YGRKKRRQRRRKLSSIESDV [Tat-NR2B9c]
- reduction of number of infarctions in the cortex (embolic stroke; [9]): even greater
- reduction of volumes of infarctions in the cortex (embolic stroke; [9]): even greater
- number of MRI-visible infarctions in the whole brain (embolic stroke; vs vehicle control): significantly reduced
- volume of MRI-visible infarctions in the whole brain (embolic stroke; vs vehicle control): significantly reduced
- infarction size 24 hr post treatment relative to saline placebo [1]: significantly reduced
- stability of lyophilized composition ([2]; lyophilized from 1-50 mg/ml in normal saline, −20° C. or room temperature): stable
- stability (degradation or aggregation of the peptide) when stored frozen ([2]; normal saline, 10-30 mg/ml, stored frozen, two or more years): stable
- decrease in blood pressure ([3]; infusion over 3 min): about 50%
- period of recovery of blood pressure ([3]; infusion over 3 min): 90 min
- recovery of blood pressure ([3]; infusion over an hour (60 min)): recovered over a period of hour
- reduction in blood pressure ([3]; infusion over an hour (60 min)): only a slight reduction
- subjects with an elevated histamine level ([4]; 0.375 mg/kg dose group, 1 timepoint, 2.00 hours post dose): 1 subject
- subjects with histamine levels greater than 10 nmol/L ([4]; 10 minutes after start of administration): 7 of the 8
- subjects with histamine levels greater than 10 nmol/L ([4]; 10 minutes after start of administration, listed as NA 1): Seven of 8
- subjects with histamine levels greater than 10 nmol/L ([4]; 15 minutes after start of administration): 3 subjects
- maximum histamine level ([4]; 10 minutes after start): 39.8 nmol/L
- average histamine level ([4]; 10 minutes after start): 24.3 nmol/L
- maximum histamine level ([4]; 15 minutes after start): 20.3 nmol/L
- average histamine level ([4]; 15 minutes after start): 15.3 nmol/L
- AE dry mouth, incidence ([4]; 9/46 subjects receiving drug): 19.6%
- AE flushing, incidence ([4]; 10/46 subjects receiving drug): 21.7%
- AE pruritis, incidence ([4]; 12/46 subjects receiving drug): 26.1%
- AE feeling hot, incidence ([4]; 13/46 subjects receiving drug): 28.3%
- active treatment subjects who experienced at least 1 AE ([4]; 34 of 46 active treatment subjects, all doses): 73.9%
- time for abnormal histamine results to return to the normal range ([4]; after drug administration): ≤ 24.00 h
- Serious Adverse Events (SAEs) ([4]; all dose groups): No Serious Adverse Events (SAEs) were reported
- AEs at doses ≧2.60 mg/kg (decreased blood pressure, paraesthesia, hypoaesthesia, erythema, rash, pruritus, dry mouth, nausea, feeling hot, flushing) ([4]; doses ≧2.60 mg/kg): several AEs were frequently reported
- abnormal levels of histamine ([4]; treatment groups other than 3.75 mg/kg): no treatment group had significant abnormal levels of histamine
- histamine levels [5]: elevated histamine levels were observed
- histamine levels [6]: elevated histamine levels were observed
- histamine levels [7]: elevated histamine levels were observed

Substance: IESDV (synthetic pentamer peptide from the C-terminus of NMDAR 2B) [pentamer peptide from the C-terminus of NMDAR 2B, reported by Bach]
- inhibiting binding of NMDAR 2B to PSD95 [8]: effective

Substance: vdseisslk-rrrqrrkkrgyin ([dV][dD][dS][dE][dI][dS][dS][dL][dK][dR][dR][dR][dQ][dR][dR][dK][dK][dR]G[dY][dI][dN]; also: retro-inverso) [retro-inverso analog of Tat-NR2B9c, retro-inverso analog of Tat-NR2B9c described in WO 2008/014917]
- inhibiting cerebral ischemia (cerebral ischemia): effective
